Data reported in patent US20150343088A1 (KAGOSHIMA UNIVERSITY, published 2015).

Target: T1, human folate receptor β (human, UniProt P14207 17-230)
T1 construct: whole, on cells; also called FRβ; FR-β
Experiment: flow cytometry on human FRβ-expressing B300-19 cells
Procedure: The cells were further reacted with an anti-rat antibody labeled with APC. After the end of reaction, stainability was determined using a flow cytometer.

T1 sequence (P14207 17-230): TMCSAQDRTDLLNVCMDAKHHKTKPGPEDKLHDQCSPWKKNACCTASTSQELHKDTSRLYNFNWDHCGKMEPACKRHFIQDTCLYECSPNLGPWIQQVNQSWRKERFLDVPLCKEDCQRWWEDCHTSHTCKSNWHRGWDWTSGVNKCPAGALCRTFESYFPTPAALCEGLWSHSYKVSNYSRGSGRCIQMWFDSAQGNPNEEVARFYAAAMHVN

B1: anti-human FRα/β rat monoclonal antibody (clone name: No. 5) (antibody, V domains shown)
VH: QVQLKESGPGLVQPSQTLSLTCTVSGFSLTSNSVSWVRQPPGKGLEWMGAIWSGGSTDYNSALKSRLSISKDTSKSQVFLKMNSLQTEDTAIYFCTRYYGYTYFAYWGQGVMVTVSS
VL: DIQMTQSPASLSASLEEIVTITCQASQDIGNWLAWYQQKPGKSPQLLIYDAIRLADGVPSRFSGSRSGTQYSLKISRLQVEDIGDYYCQQGQSNPRTFGGGTKLELK
notes: also called antibody No. 5; anti-human FRα/β antibody
binding result: binds
